Among the data in US20200024322A1 (Eli Lilly, published 2020) are Ki values, retold here.

Substitutions are numbered along the chain they refer to. Numbered stars: 1 amine (or outer) side, 2 acyl side, 3 side chain; on linkers, the order of the positions; unused ones are H or OH. Square brackets hold non-standard residues; d marks the D form. Side chains are listed from the residue outwards. Ends that are not written are not given here. * marks the point of attachment. C20 diacid = O=C(O)CCCCCCCCCCCCCCCCCCC(=O)*; γGlu = O=C(O)[C@H](CCC(=O)[*:2])N[*:1]; αMeL = CC(C)C[C@](C)(N)C(=O)O; AEEA = NCCOCCOCC(=O)O; Aib = CC(C)(N)C(=O)O

The labels stand for the following.
B1: Example 85 (peptide)
peptide: Y[Aib]EGTFTSDASILLDKK([AEEA-AEEA-γGlu-C20 diacid])AQ[Aib]AFIEYLIEGGPSSGAPPPS-NH2
modifications: N-terminus assumed
SMILES: CC[C@H](C)[C@H](NC(=O)[C@H](CC(C)C)NC(=O)[C@H](Cc1ccc(O)cc1)NC(=O)[C@H](CCC(=O)O)NC(=O)[C@@H](NC(=O)[C@H](Cc1ccccc1)NC(=O)[C@H](C)NC(=O)C(C)(C)NC(=O)[C@H](CCC(N)=O)NC(=O)[C@H](C)NC(=O)[C@H](CCCCNC(=O)COCCOCCNC(=O)COCCOCCNC(=O)CC[C@H](NC(=O)CCCCCCCCCCCCCCCCCCC(=O)O)C(=O)O)NC(=O)[C@H](CCCCN)NC(=O)[C@H](CC(=O)O)NC(=O)[C@H](CC(C)C)NC(=O)[C@H](CC(C)C)NC(=O)[C@@H](NC(=O)[C@H](CO)NC(=O)[C@H](C)NC(=O)[C@H](CC(=O)O)NC(=O)[C@H](CO)NC(=O)[C@@H](NC(=O)[C@H](Cc1ccccc1)NC(=O)[C@@H](NC(=O)CNC(=O)[C@H](CCC(=O)O)NC(=O)C(C)(C)NC(=O)[C@@H](N)Cc1ccc(O)cc1)[C@@H](C)O)[C@@H](C)O)[C@@H](C)CC)[C@@H](C)CC)C(=O)N[C@@H](CCC(=O)O)C(=O)NCC(=O)NCC(=O)N1CCC[C@H]1C(=O)N[C@@H](CO)C(=O)N[C@@H](CO)C(=O)NCC(=O)N[C@@H](C)C(=O)N1CCC[C@H]1C(=O)N1CCC[C@H]1C(=O)N1CCC[C@H]1C(=O)N[C@@H](CO)C(N)=O
B2: Example 86 (peptide)
peptide: Y[Aib]EGTFTSDYSILLDKK([AEEA-AEEA-γGlu-C20 diacid])AQ[Aib]AFIEYLIEAGPSSGAPPPS-NH2
modifications: N-terminus assumed
SMILES: CC[C@H](C)[C@H](NC(=O)[C@H](CC(C)C)NC(=O)[C@H](Cc1ccc(O)cc1)NC(=O)[C@H](CCC(=O)O)NC(=O)[C@@H](NC(=O)[C@H](Cc1ccccc1)NC(=O)[C@H](C)NC(=O)C(C)(C)NC(=O)[C@H](CCC(N)=O)NC(=O)[C@H](C)NC(=O)[C@H](CCCCNC(=O)COCCOCCNC(=O)COCCOCCNC(=O)CC[C@H](NC(=O)CCCCCCCCCCCCCCCCCCC(=O)O)C(=O)O)NC(=O)[C@H](CCCCN)NC(=O)[C@H](CC(=O)O)NC(=O)[C@H](CC(C)C)NC(=O)[C@H](CC(C)C)NC(=O)[C@@H](NC(=O)[C@H](CO)NC(=O)[C@H](Cc1ccc(O)cc1)NC(=O)[C@H](CC(=O)O)NC(=O)[C@H](CO)NC(=O)[C@@H](NC(=O)[C@H](Cc1ccccc1)NC(=O)[C@@H](NC(=O)CNC(=O)[C@H](CCC(=O)O)NC(=O)C(C)(C)NC(=O)[C@@H](N)Cc1ccc(O)cc1)[C@@H](C)O)[C@@H](C)O)[C@@H](C)CC)[C@@H](C)CC)C(=O)N[C@@H](CCC(=O)O)C(=O)N[C@@H](C)C(=O)NCC(=O)N1CCC[C@H]1C(=O)N[C@@H](CO)C(=O)N[C@@H](CO)C(=O)NCC(=O)N[C@@H](C)C(=O)N1CCC[C@H]1C(=O)N1CCC[C@H]1C(=O)N1CCC[C@H]1C(=O)N[C@@H](CO)C(N)=O
B3: Example 192 (peptide)
peptide: YXEGTXTSDASIXLDEKAQXEFIXYLIEGGPSSGAPPPS
modifications: Aib2; αMeF(2F)6; αMeL13; K17((2-[2-(2-Amino-ethoxy)-ethoxy]-acetyl)2-(γ-Glu)-CO-(CH2)18-CO2H); Aib20; D-Glu24; C-terminal NH2
B4: Example 160 (peptide)
peptide: B3 peptide with A10X, E21T
modifications: Aib2; αMeF(2F)6; Aib10; αMeL13; K17((2-[2-(2-Amino-ethoxy)-ethoxy]-acetyl)2-(γ-Glu)-CO-(CH2)18-CO2H); Aib20; D-Glu24; C-terminal NH2
B5: Example 52 (peptide)
peptide: YXEGTFTSDYSIXLDSKAQXAFIEYLIEGGPSSGAPPPS
modifications: Aib2; αMeL13; K17((2-[2-(2-Amino-ethoxy)-ethoxy]-acetyl)2-(γ-Glu)-CO-(CH2)18-CO2H); Aib20; C-terminal NH2
B6: Example 84 (peptide)
peptide: B5 peptide with X13L, S16K, E24X
modifications: Aib2; K17((2-[2-(2-Amino-ethoxy)-ethoxy]-acetyl)2-(γ-Glu)-CO-(CH2)18-CO2H); Aib20; D-Glu24; C-terminal NH2
B7: Example 82 (peptide)
peptide: B5 peptide with I12X, X13L, S16K
modifications: Aib2; D-Ile12; K17((2-[2-(2-Amino-ethoxy)-ethoxy]-acetyl)2-(γ-Glu)-CO-(CH2)18-CO2H); Aib20; C-terminal NH2
B8: Example 130 (peptide)
peptide: B5 peptide with F6X, Y10E, X13L, S16K
modifications: Aib2; αMeF6; K17((2-[2-(2-Amino-ethoxy)-ethoxy]-acetyl)2-(γ-Glu)-CO-(CH2)18-CO2H); Aib20; C-terminal NH2
B9: Example 55 (peptide)
peptide: H[Aib]EGTFTSDYSI[αMeL]LDEK([AEEA-AEEA-γGlu-C20 diacid])AQHAFIEYLIEGGPSSGAPPPS-NH2
modifications: N-terminus assumed
SMILES: CC[C@H](C)[C@H](NC(=O)[C@H](CC(C)C)NC(=O)[C@H](Cc1ccc(O)cc1)NC(=O)[C@H](CCC(=O)O)NC(=O)[C@@H](NC(=O)[C@H](Cc1ccccc1)NC(=O)[C@H](C)NC(=O)[C@H](Cc1c[nH]cn1)NC(=O)[C@H](CCC(N)=O)NC(=O)[C@H](C)NC(=O)[C@H](CCCCNC(=O)COCCOCCNC(=O)COCCOCCNC(=O)CC[C@H](NC(=O)CCCCCCCCCCCCCCCCCCC(=O)O)C(=O)O)NC(=O)[C@H](CCC(=O)O)NC(=O)[C@H](CC(=O)O)NC(=O)[C@H](CC(C)C)NC(=O)[C@](C)(CC(C)C)NC(=O)[C@@H](NC(=O)[C@H](CO)NC(=O)[C@H](Cc1ccc(O)cc1)NC(=O)[C@H](CC(=O)O)NC(=O)[C@H](CO)NC(=O)[C@@H](NC(=O)[C@H](Cc1ccccc1)NC(=O)[C@@H](NC(=O)CNC(=O)[C@H](CCC(=O)O)NC(=O)C(C)(C)NC(=O)[C@@H](N)Cc1c[nH]cn1)[C@@H](C)O)[C@@H](C)O)[C@@H](C)CC)[C@@H](C)CC)C(=O)N[C@@H](CCC(=O)O)C(=O)NCC(=O)NCC(=O)N1CCC[C@H]1C(=O)N[C@@H](CO)C(=O)N[C@@H](CO)C(=O)NCC(=O)N[C@@H](C)C(=O)N1CCC[C@H]1C(=O)N1CCC[C@H]1C(=O)N1CCC[C@H]1C(=O)N[C@@H](CO)C(N)=O
B10: Example 56 (peptide)
peptide: Y[Aib]EGTFTSDYSI[αMeL]LDEK([AEEA-AEEA-γGlu-C20 diacid])AQHAFIEYLIEGGPSSGAPPPS-NH2
modifications: N-terminus assumed
SMILES: CC[C@H](C)[C@H](NC(=O)[C@H](CC(C)C)NC(=O)[C@H](Cc1ccc(O)cc1)NC(=O)[C@H](CCC(=O)O)NC(=O)[C@@H](NC(=O)[C@H](Cc1ccccc1)NC(=O)[C@H](C)NC(=O)[C@H](Cc1c[nH]cn1)NC(=O)[C@H](CCC(N)=O)NC(=O)[C@H](C)NC(=O)[C@H](CCCCNC(=O)COCCOCCNC(=O)COCCOCCNC(=O)CC[C@H](NC(=O)CCCCCCCCCCCCCCCCCCC(=O)O)C(=O)O)NC(=O)[C@H](CCC(=O)O)NC(=O)[C@H](CC(=O)O)NC(=O)[C@H](CC(C)C)NC(=O)[C@](C)(CC(C)C)NC(=O)[C@@H](NC(=O)[C@H](CO)NC(=O)[C@H](Cc1ccc(O)cc1)NC(=O)[C@H](CC(=O)O)NC(=O)[C@H](CO)NC(=O)[C@@H](NC(=O)[C@H](Cc1ccccc1)NC(=O)[C@@H](NC(=O)CNC(=O)[C@H](CCC(=O)O)NC(=O)C(C)(C)NC(=O)[C@@H](N)Cc1ccc(O)cc1)[C@@H](C)O)[C@@H](C)O)[C@@H](C)CC)[C@@H](C)CC)C(=O)N[C@@H](CCC(=O)O)C(=O)NCC(=O)NCC(=O)N1CCC[C@H]1C(=O)N[C@@H](CO)C(=O)N[C@@H](CO)C(=O)NCC(=O)N[C@@H](C)C(=O)N1CCC[C@H]1C(=O)N1CCC[C@H]1C(=O)N1CCC[C@H]1C(=O)N[C@@H](CO)C(N)=O

By Ki is commonly meant the dissociation constant of the complex between target and ligand, obtained from inhibition or displacement. Read a low Ki as a stronger hold on the target.

The first assay concerns the target T1, human GIP receptor (human, UniProt P48546 22-466).
T1 construct: whole, on cells; Used as crude membranes of stably transfected CHO cells; also called hGIPR
T1 sequence (looked up): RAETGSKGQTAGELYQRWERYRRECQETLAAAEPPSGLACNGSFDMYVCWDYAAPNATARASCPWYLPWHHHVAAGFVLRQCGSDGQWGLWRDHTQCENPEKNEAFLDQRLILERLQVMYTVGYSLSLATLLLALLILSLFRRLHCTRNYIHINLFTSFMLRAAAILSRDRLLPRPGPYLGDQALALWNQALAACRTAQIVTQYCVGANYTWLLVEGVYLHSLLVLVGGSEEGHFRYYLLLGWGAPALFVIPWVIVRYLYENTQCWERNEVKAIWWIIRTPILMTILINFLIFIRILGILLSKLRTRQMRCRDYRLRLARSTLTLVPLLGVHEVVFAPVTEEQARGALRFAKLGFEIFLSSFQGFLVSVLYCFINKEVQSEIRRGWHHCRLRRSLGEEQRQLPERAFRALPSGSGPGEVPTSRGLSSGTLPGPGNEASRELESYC
As to the kind of experiment: SPA, [125I]-GIP displacement, hGIPR membranes.
Consider B1, for which the inhibition constant (Ki) was 0.621 nM.

For B2, the affinity, expressed as Ki, was 0.0401 nM.

Molecule B3 registered a Ki of 0.118 nM.

B4: the Ki came to 5.98 nM.

B5 showed a Ki of 0.0342 nM.

In turn, B6 yielded a Ki of 0.143 nM.

Take B7: the Ki was 14.9 nM.

Molecule B8 registered a Ki of 0.177 nM.

B9 came in with a Ki of 6.24 nM.

With B10, the Ki was 0.148 nM.

Another assay has as its target T2, human GLP-1 receptor (human, UniProt P43220 24-463).
T2 construct: whole, on cells; Used as crude membranes of stably transfected HEK293 cells; also called hGLP1R; hGLP-1R
The assay can be described thus: SPA, [125I]-GLP-1 displacement, hGLP-1R membranes.
B1: the Ki is 1.87 nM.

As to B2, the Ki amounted to 3.74 nM.

B3 had a Ki of 2.89 nM.

Molecule B4 displayed a Ki of 14.4 nM.

With B5, the affinity corresponds to a Ki of 5.81 nM.

Molecule B6 came in with an inhibitory constant (Ki) of 10.2 nM.

In the case of B7, the Ki was 6.82 nM.

B8 yielded a Ki of 3.66 nM.

On to B9, for which the affinity corresponds to a Ki of 7.29 nM.

Molecule B10 displayed a Ki of 10.3 nM.
